Assay results taken from the Human Domainome abundance scans (Beltran et al. 2025).
± gives the uncertainty stated by the source.

B1: Transcriptional repressor p66-beta, residues 415 to 455; numbered along this chain, Q8WXI9 (parent)
chain: VEPFVCAQCRTDFTPHWKQEKNGKILCEQCMTSNQKKALKA

Variants of: B1
Assay: abundance fitness (aPCA) (normalised: wild type 0, dead -1); higher = more abundant; growth selection in yeast, the domain comes from the species named
Details: Homo sapiens

Q: Which abundance fitness does the source give for C30H here?
A: The abundance fitness was -0.672 ± 0.28.

Q: With C30W as the variant, how does the abundance fitness read?
A: Its abundance fitness is -1.07 ± 0.13.

Q: Which abundance fitness does the source give for C30L here?
A: Its abundance fitness is -0.786 ± 0.11.

Q: Which abundance fitness does the source give for C30A here?
A: The abundance fitness was -0.488 ± 0.13.

Q: For C30D, which abundance fitness is on record?
A: Its abundance fitness is -0.315 ± 0.19.

Q: Which abundance fitness does the source give for Q29F here?
A: The abundance fitness was -0.153 ± 0.12.

Q: For Q29K, which abundance fitness is on record?
A: Its abundance fitness is 0.086 ± 0.11.

Q: Which abundance fitness does the source give for Q29W here?
A: Its abundance fitness is -0.3 ± 0.15.

Q: For Q29Y, which abundance fitness is on record?
A: The abundance fitness was -0.329 ± 0.32.

Q: Which abundance fitness does the source give for Q29V here?
A: Its abundance fitness is -0.389 ± 0.086.

Q: Which abundance fitness does the source give for Q29G here?
A: The abundance fitness was -0.15 ± 0.07.

Q: For Q29T, which abundance fitness is on record?
A: The abundance fitness was -0.253 ± 0.12.

Q: With Q29I as the variant, how does the abundance fitness read?
A: Its abundance fitness is -0.177 ± 0.16.

Q: Which abundance fitness does the source give for Q29D here?
A: The abundance fitness was -0.083 ± 0.25.

Q: Which abundance fitness does the source give for Q29C here?
A: Its abundance fitness is -0.491 ± 0.36.

Q: For Q29P, which abundance fitness is on record?
A: Its abundance fitness is -0.141 ± 0.12.

Q: With Q29R as the variant, how does the abundance fitness read?
A: Its abundance fitness is 0.02 ± 0.058.

Q: For Q29E, which abundance fitness is on record?
A: The abundance fitness was -0.097 ± 0.14.

Q: Which abundance fitness does the source give for Q29S here?
A: The abundance fitness was -0.156 ± 0.093.

Q: For Q29M, which abundance fitness is on record?
A: Its abundance fitness is -0.14 ± 0.095.

Q: For Q29L, which abundance fitness is on record?
A: Its abundance fitness is -0.042 ± 0.087.

Q: Which abundance fitness does the source give for Q29H here?
A: The abundance fitness was 0.333 ± 0.12.

Q: For K37N, which abundance fitness is on record?
A: The abundance fitness was -0.226 ± 0.19.

Q: With K37Y as the variant, how does the abundance fitness read?
A: Its abundance fitness is -0.116 ± 0.2.

Q: For K37T, which abundance fitness is on record?
A: Its abundance fitness is -0.027 ± 0.11.

Q: For K37Q, which abundance fitness is on record?
A: The abundance fitness was 0.168 ± 0.079.

Q: For K37R, which abundance fitness is on record?
A: Its abundance fitness is -0.074 ± 0.064.

Q: With K37G as the variant, how does the abundance fitness read?
A: The abundance fitness was -0.015 ± 0.056.

Q: For K37V, which abundance fitness is on record?
A: Its abundance fitness is -0.035 ± 0.076.

Q: Which abundance fitness does the source give for K37A here?
A: Its abundance fitness is 0.018 ± 0.067.

Q: Which abundance fitness does the source give for K37E here?
A: The abundance fitness was 0.142 ± 0.066.

Q: With K37C as the variant, how does the abundance fitness read?
A: Its abundance fitness is -0.309 ± 0.14.

Q: With K37I as the variant, how does the abundance fitness read?
A: Its abundance fitness is -0.092 ± 0.24.

Q: Which abundance fitness does the source give for K37P here?
A: The abundance fitness was 0.1 ± 0.088.

Q: Which abundance fitness does the source give for K37D here?
A: Its abundance fitness is -0.191 ± 0.21.

Q: For K37L, which abundance fitness is on record?
A: The abundance fitness was -0.036 ± 0.08.

Q: With K37M as the variant, how does the abundance fitness read?
A: Its abundance fitness is 0.095 ± 0.13.

Q: With K37S as the variant, how does the abundance fitness read?
A: Its abundance fitness is -0.056 ± 0.093.

Q: With K37H as the variant, how does the abundance fitness read?
A: Its abundance fitness is -0.176 ± 0.23.

Q: For A38L, which abundance fitness is on record?
A: Its abundance fitness is -0.053 ± 0.094.

Q: Which abundance fitness does the source give for A38Y here?
A: Its abundance fitness is -0.228 ± 0.21.

Q: Which abundance fitness does the source give for A38P here?
A: Its abundance fitness is -0.509 ± 0.47.

Q: Which abundance fitness does the source give for A38R here?
A: Its abundance fitness is -0.19 ± 0.064.

Q: With A38W as the variant, how does the abundance fitness read?
A: The abundance fitness was -0.398 ± 0.12.

Q: With A38V as the variant, how does the abundance fitness read?
A: The abundance fitness was -0.04 ± 0.073.

Q: For A38H, which abundance fitness is on record?
A: The abundance fitness was -0.32 ± 0.36.

Q: Which abundance fitness does the source give for A38Q here?
A: The abundance fitness was -0.541 ± 0.44.

Q: Which abundance fitness does the source give for A38K here?
A: Its abundance fitness is 0.059 ± 0.096.

Q: Which abundance fitness does the source give for A38S here?
A: The abundance fitness was 0.066 ± 0.12.

Q: With A38G as the variant, how does the abundance fitness read?
A: The abundance fitness was -0.213 ± 0.057.

Q: With A38D as the variant, how does the abundance fitness read?
A: The abundance fitness was 0.046 ± 0.13.

Q: With A38E as the variant, how does the abundance fitness read?
A: The abundance fitness was 0.167 ± 0.083.

Q: With A38M as the variant, how does the abundance fitness read?
A: Its abundance fitness is -0.181 ± 0.13.

Q: For A38T, which abundance fitness is on record?
A: The abundance fitness was 0.687 ± 0.36.

Q: Which abundance fitness does the source give for M31G here?
A: The abundance fitness was 0.01 ± 0.059.

Q: With M31V as the variant, how does the abundance fitness read?
A: The abundance fitness was -0.083 ± 0.069.

Q: With M31P as the variant, how does the abundance fitness read?
A: Its abundance fitness is -0.97 ± 0.29.

Q: With M31A as the variant, how does the abundance fitness read?
A: Its abundance fitness is -0.038 ± 0.07.

Q: With M31D as the variant, how does the abundance fitness read?
A: The abundance fitness was -0.106 ± 0.11.

Q: With M31S as the variant, how does the abundance fitness read?
A: Its abundance fitness is -0.042 ± 0.12.

Q: Which abundance fitness does the source give for M31R here?
A: The abundance fitness was -0.178 ± 0.062.

Q: Which abundance fitness does the source give for M31E here?
A: The abundance fitness was -0.033 ± 0.085.

Q: With M31K as the variant, how does the abundance fitness read?
A: The abundance fitness was -0.043 ± 0.14.

Q: Which abundance fitness does the source give for M31Y here?
A: The abundance fitness was 0.161 ± 0.19.

Q: With M31Q as the variant, how does the abundance fitness read?
A: The abundance fitness was 0.05 ± 0.086.

Q: With M31L as the variant, how does the abundance fitness read?
A: Its abundance fitness is -0.274 ± 0.11.

Q: With M31T as the variant, how does the abundance fitness read?
A: Its abundance fitness is -0.054 ± 0.12.

Q: Which abundance fitness does the source give for M31W here?
A: Its abundance fitness is -0.041 ± 0.072.

Q: For N34E, which abundance fitness is on record?
A: The abundance fitness was 0.127 ± 0.073.

Q: For N34V, which abundance fitness is on record?
A: Its abundance fitness is -0.223 ± 0.065.

Q: With N34A as the variant, how does the abundance fitness read?
A: Its abundance fitness is -0.076 ± 0.077.

Q: Which abundance fitness does the source give for N34H here?
A: Its abundance fitness is -0.077 ± 0.1.

Q: For N34G, which abundance fitness is on record?
A: Its abundance fitness is -0.156 ± 0.07.

Q: With N34C as the variant, how does the abundance fitness read?
A: The abundance fitness was -0.197 ± 0.091.

Q: With N34L as the variant, how does the abundance fitness read?
A: Its abundance fitness is -0.327 ± 0.092.

Q: For N34Q, which abundance fitness is on record?
A: The abundance fitness was -0.083 ± 0.082.

Q: Which abundance fitness does the source give for N34M here?
A: The abundance fitness was -0.371 ± 0.2.

Q: For N34I, which abundance fitness is on record?
A: Its abundance fitness is -0.088 ± 0.41.

Q: For N34P, which abundance fitness is on record?
A: Its abundance fitness is -0.257 ± 0.11.

Q: Which abundance fitness does the source give for N34Y here?
A: Its abundance fitness is -0.287 ± 0.18.

Q: Which abundance fitness does the source give for N34R here?
A: The abundance fitness was -0.179 ± 0.064.

Q: With N34F as the variant, how does the abundance fitness read?
A: The abundance fitness was -0.206 ± 0.13.

Q: Which abundance fitness does the source give for N34T here?
A: Its abundance fitness is -0.199 ± 0.13.
